Values of other authors as cited in article PMC11784315.

Target: Spike S1 S1 (Severe acute respiratory syndrome coronavirus 2) (UniProt P0DTC2)

DC-SIGN, sequence (Q9NNX6 whole entry): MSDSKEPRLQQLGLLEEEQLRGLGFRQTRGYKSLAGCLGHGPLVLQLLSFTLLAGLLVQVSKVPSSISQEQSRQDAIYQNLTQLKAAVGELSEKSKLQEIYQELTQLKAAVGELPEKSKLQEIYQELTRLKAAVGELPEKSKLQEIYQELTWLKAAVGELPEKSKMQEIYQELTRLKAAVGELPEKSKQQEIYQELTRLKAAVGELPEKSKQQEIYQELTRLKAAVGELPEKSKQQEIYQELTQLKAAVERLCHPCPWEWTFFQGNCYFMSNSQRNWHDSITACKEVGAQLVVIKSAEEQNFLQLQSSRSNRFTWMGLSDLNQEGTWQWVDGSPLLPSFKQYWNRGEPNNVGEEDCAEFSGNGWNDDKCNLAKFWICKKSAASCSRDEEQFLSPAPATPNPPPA

Substance: DC-SIGN (from UniProt Q9NNX6)
- Kd: 420 nM
